# Measured values reported in patent publication US20220403428A1.
# Biological target: PcPsiH, Psilocybe cubensis tryptamine 4-monooxygenase (cytochrome P450 enzyme) (Psilocybe cubensis) (UniProt P0DPA7)
# Test: cell-based or functional assay
Substance,extracellular accumulation of tryptamine [mg/L],psilocin titer [mg/L],psilocybin titer [mg/L]
native S. cerevisiae cytochrome P450 reductase (Ncp1) (from UniProt P16603 2-691) (enzyme),90,–,–
"PcCpr, putative Psilocybe cubensis cytochrome P450 reductase (enzyme)",–,135,117
